From paper PMC4499774 come the findings set out here.

The assay addresses GST-MED4 CsoS2 (pFC005) (Prochlorococcus marinus str. MED4). The assay is described as follows: pull-down; E. coli co-expressing GST-MED4 CsoS2 (pFC005) with CsoS1 and CsoS1D (pFC119); Glutathione-Sepharose magnetic beads; elution by SDS-PAGE, densitometry and Western blot. In general terms: A western blot detects proteins with antibodies after separation by electrophoresis.

Sequence of GST-MED4 CsoS2 (pFC005) (Prochlorococcus marinus str. MED4) (Q7V2C8 whole entry): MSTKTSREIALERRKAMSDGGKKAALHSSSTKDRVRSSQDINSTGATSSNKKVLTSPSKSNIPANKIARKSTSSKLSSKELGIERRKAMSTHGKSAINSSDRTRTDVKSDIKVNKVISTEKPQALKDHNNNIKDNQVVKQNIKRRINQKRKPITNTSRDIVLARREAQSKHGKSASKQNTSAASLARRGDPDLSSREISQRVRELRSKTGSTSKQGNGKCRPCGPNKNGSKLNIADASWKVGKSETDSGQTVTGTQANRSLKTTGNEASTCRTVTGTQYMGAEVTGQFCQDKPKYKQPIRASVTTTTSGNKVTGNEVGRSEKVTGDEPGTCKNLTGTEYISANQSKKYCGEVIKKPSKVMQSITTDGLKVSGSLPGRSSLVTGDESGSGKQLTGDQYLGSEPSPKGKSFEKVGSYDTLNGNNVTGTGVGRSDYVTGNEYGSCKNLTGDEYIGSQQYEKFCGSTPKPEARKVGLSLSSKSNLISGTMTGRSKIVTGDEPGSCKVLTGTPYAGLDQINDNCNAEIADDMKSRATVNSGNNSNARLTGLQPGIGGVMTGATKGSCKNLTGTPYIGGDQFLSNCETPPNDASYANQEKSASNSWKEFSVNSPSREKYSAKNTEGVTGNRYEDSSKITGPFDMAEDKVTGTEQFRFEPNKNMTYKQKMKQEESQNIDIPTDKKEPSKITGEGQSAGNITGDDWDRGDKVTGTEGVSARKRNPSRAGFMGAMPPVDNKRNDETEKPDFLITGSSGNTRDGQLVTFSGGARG

B1: MED4 CsoS1D co-expressed with GST-MED4 CsoS2 (pFC119) (natural protein)
chain: MEPTSSLNRGDRKKGSSLVTGSEVQSQSNGASCFITTDSEKSLVSRQASQVEQIELRTYVFLDSLQPQLAAYMGTVSRGFLPIPGDSCLWMEVSPGMAVHRVTDIALKASNVRLGQMIVERAFGSLALYHKDQSTVLHSGDVVLDAIGSEVRKRTKPSTSWTEVICAITPDHAVLINRQNRSGSMIQSGMSMFILETEPAGYVLKAANEAEKSANITIIDVKAVGAFGRLTLAGKEGDVEEAAAAAIRAIDQISNY
On to B1, for which the molar ratio of CsoS1D to GST-CsoS2 in the elution fraction (densitometry) was determined as 5 molar ratio.
